Test results as given in paper PMC7531523.

Legend:
[1] = molecular target: epOX40.24.2 full-length human IgG1 (human); experiment: BLI
[2] = molecular target: rOX40.24.2 full-length human IgG1 (human); experiment: BLI
[3] = molecular target: epOX40.24.1 full-length human IgG1 (human); experiment: BLI
[4] = molecular target: epOX40.24.1 scFv displayed on yeast (human); experiment: flow cytometry on cells
[5] = molecular target: rOX40.24.2 scFv displayed on yeast (human); experiment: flow cytometry on cells
[6] = molecular target: epOX40.24.2 scFv displayed on yeast (human); experiment: flow cytometry on cells
[7] = molecular target: rOX40.24.1 scFv displayed on yeast (human); experiment: flow cytometry on cells

- Kd [1]: 3.8 nM
- Kd [2]: 6.9 nM
- Kd [3]: 14.4 nM
- Kd [4]: 3.8 nM
- Kd [5]: 2 nM
- Kd [6]: 7.9 nM
- Kd [7]: 2.2 nM
B1: tumor necrosis factor receptor superfamily member 4 (OX40), extracellular, soluble portion (domain or fragment)
chain: LHCVGDTYPSNDRCCHECRPGNGMVSRCSRSQNTVCRPCGPGFYNDVVSSKPCKPCTWCNLRSGSERKQLCTATQDTVCRCRAGTQPLDSYKPGVDCAPCPPGHFSPGDNQACKPWTNCTLAGKHTLQPASNSSDAICEDRDPPATQPQETQGPPARPITVQPTEAWPRTSQGPSTRPVEVPGGRA
modifications: biotin (Sulfo-NHS-LC-biotin) for staining of yeast; not stated for BLI and SPR
